Data taken from CN113621065A (WUHAN HSA BIND BIOTECHNOLOGY CO LTD, dated 2021).

Tests used:
[1] = target: T1, 人4-1BB胞外区蛋白(hu4-1BB ECD) (human, UniProt Q07011 24-186); assay: single-phage ELISA, 100 ng/well coated 4-1BB
T1 construct: extracellular domain; also called 人4-1BB蛋白; 抗原4-1BB

[2] = target: T2, 阴性对照蛋白BSA (UniProt P02769 25-607); assay: single-phage ELISA, 100 ng/well coated protein
T2 construct: also called 对照BSA
T2 sequence (P02769 25-607 limits assumed): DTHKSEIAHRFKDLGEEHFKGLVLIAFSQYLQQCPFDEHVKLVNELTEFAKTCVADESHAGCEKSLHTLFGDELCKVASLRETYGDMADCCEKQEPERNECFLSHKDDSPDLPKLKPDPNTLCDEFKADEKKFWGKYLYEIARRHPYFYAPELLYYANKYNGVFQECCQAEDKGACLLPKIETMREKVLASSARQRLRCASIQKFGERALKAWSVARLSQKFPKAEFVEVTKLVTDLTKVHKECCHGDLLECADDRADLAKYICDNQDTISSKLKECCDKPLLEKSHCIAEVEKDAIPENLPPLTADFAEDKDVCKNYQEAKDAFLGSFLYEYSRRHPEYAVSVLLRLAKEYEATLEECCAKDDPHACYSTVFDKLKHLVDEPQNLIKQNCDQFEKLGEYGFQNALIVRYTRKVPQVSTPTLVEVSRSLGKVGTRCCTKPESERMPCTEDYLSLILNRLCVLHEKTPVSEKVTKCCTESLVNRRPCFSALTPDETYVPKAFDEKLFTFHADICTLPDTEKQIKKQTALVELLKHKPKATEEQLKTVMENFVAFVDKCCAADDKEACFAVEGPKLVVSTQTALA

binding result [1]: binds
binding result [2]: no binding
B1: 抗体(scFv)8F5 (scFv)
scFv: QVQLVQSGAEVKKPGASVKVSCKPSGYTFTSHYIHWVRQAPGQGLEWMGWINPNSGGTNYAQKFQGRVTMTRDTSISTAYMELSRLRSDDTAVYYCARDGGGMDVWGKGTMVTVSSGGGGSGGGGSGGGGSQSALTQPASVSGSPGQSITISCTGTSSDVGGYDFVSWYQHHPGKAPKLMIYGVANRPSGVSNRFSGSKSGNTASLTISGLQAEDDADYYCSSYSSTSTRYVFGTGTKVTVLG
